Results from the supplement of paper PMC7877785.
± gives the uncertainty stated by the source.

Experiment: self-splicing fitness, log relative to wild type (ln ratio); higher = more splicing; Tetrahymena group I intron in knt gene, E. coli kanamycin selection, DiMSum; sequences stand for … in CUCUCU…GGAGGGAAAAGUUAUCAGGCAUGCACCUGGUAGCUAGUCUUUAAACCAAUAGAUUGCAUCGGUUUAAAAGGCAAGACCGUCAAAUUGCGGGAAAGGGGUCAACAGCCGUUCAGUACCAAGUCUCAGGGGAAACUUUGAGAUGGCCUUGCAAAGGGUAUGGUAAUAAGCUGACGGACAUGGUCCUAACCACGCAGCCAAGUCCUAAGUCAACAGAUCUUCUGUUGAUAUGGAUGCAGUUCACAGACUAAAUGUCGGUCGGGGAAGAUGUAUUCUUCUCAUAAGAUAUAGUCGGACCUCUCCUUAAUGGGAGCUAGCGGAUGAAGUGAUGCAACACUGGAGCCGCUGGGAACUAAUUUGUAUGCGAAAGUAUAUUGAUUAGUUUUGGAGUACUCGUGGUCG
In short: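 Pooled colonies went to amplicon sequencing on an Illumina HiSeq 2500 after six replicate transformations. The plates were LB agar with 100 μg/mL carbenicillin, 50 μM IPTG and 0.2% rhamnose, with or without 25 μg/mL kanamycin, incubated overnight at 37°C or 30°C. The E. coli BL21(DE3) library had all eight P1ex-region intron nucleotides randomised, the intron placed in the knt kanamycin-resistance gene on pET-22b(+). DiMSum fitness is the error-weighted combination of replicate fold changes, kanamycin against none, normalised to wild type.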

| Sequence | self-splicing fitness (ln) (30 °C) | self-splicing fitness (ln) (37 °C) |
| --- | --- | --- |
| CCAUAGCAAUAUUACGUCCU | -2.86 ± 0.23 | -2.64 ± 0.48 |
| CCAUAGCAAUAUUACGUGAA | -3.25 ± 0.21 | -2.07 ± 0.26 |
| CCAUAGCAAUAUUACGUGUU | -3.47 ± 0.14 | -3.36 ± 0.16 |
| CCCAAGCAAUAUUACGAAGG | -3.19 ± 0.17 | -2.42 ± 0.17 |
| CCCAAGCAAUAUUACGACUC | -3.56 ± 0.33 | -2.1 ± 0.33 |
| CCCAAGCAAUAUUACGAGCU | -4.17 ± 0.19 | -2.44 ± 0.21 |
| CCCAAGCAAUAUUACGAGGU | -3.16 ± 0.091 | -2.08 ± 0.086 |
| CCCAAGCAAUAUUACGAGUC | -3.23 ± 0.16 | -3.28 ± 0.24 |
| CCCAAGCAAUAUUACGAUCC |  | -2.85 ± 0.35 |
| CCCAAGCAAUAUUACGCCCG | -2.76 ± 0.33 | -2.44 ± 0.42 |
| CCCAAGCAAUAUUACGCCUC | -2.93 ± 0.25 | -2.93 ± 0.34 |
| CCCAAGCAAUAUUACGCCUU | -3.04 ± 0.16 | -2.88 ± 0.21 |
| CCCAAGCAAUAUUACGCGGU | -3.41 ± 0.12 | -1.77 ± 0.12 |
| CCCAAGCAAUAUUACGCUAU | -3.85 ± 0.29 | -3.13 ± 0.31 |
| CCCAAGCAAUAUUACGCUCU | -3.91 ± 0.26 | -2.16 ± 0.18 |
| CCCAAGCAAUAUUACGGACA | -3.25 ± 0.27 | -2.07 ± 0.14 |
| CCCAAGCAAUAUUACGGUGU | -2.71 ± 0.089 | -1 ± 0.084 |
| CCCAAGCAAUAUUACGUACG | -3.55 ± 0.21 | -2.9 ± 0.15 |
| CCCAAGCAAUAUUACGUCAA | -1.84 ± 0.14 | -2.3 ± 0.19 |
| CCCAAGCAAUAUUACGUCUC | -2.71 ± 0.15 | -2.25 ± 0.26 |
| CCCAAGCAAUAUUACGUGCC | -4.01 ± 0.29 | -2.97 ± 0.34 |
| CCCAAGCAAUAUUACGUUCU | -3.36 ± 0.14 | -3.5 ± 0.22 |
| CCCCAGCAAUAUUACGAACC | -4.18 ± 0.34 | -2.46 ± 0.36 |
| CCCCAGCAAUAUUACGAAGA | -2.91 ± 0.24 | -2.52 ± 0.26 |
| CCCCAGCAAUAUUACGAAGU | -3.84 ± 0.18 | -3.21 ± 0.2 |

| Sequence | self-splicing fitness (ln) (30 °C) | self-splicing fitness (ln) (37 °C) |
| --- | --- | --- |
| CCCCAGCAAUAUUACGAGCC | -3.75 ± 0.26 | -2.54 ± 0.25 |
| CCCCAGCAAUAUUACGAUAG | -3.16 ± 0.1 | -3.25 ± 0.17 |
| CCCCAGCAAUAUUACGAUUG | -3.58 ± 0.11 | -2.72 ± 0.14 |
| CCCCAGCAAUAUUACGCAUU | -4.14 ± 0.17 | -2.81 ± 0.18 |
| CCCCAGCAAUAUUACGCCAA | -2.64 ± 0.17 | -2.7 ± 0.19 |
| CCCCAGCAAUAUUACGCCGG | -4.29 ± 0.21 | -1.88 ± 0.16 |
| CCCCAGCAAUAUUACGCUUG | -3.52 ± 0.17 | -3.06 ± 0.2 |
| CCCCAGCAAUAUUACGGACU | -3.61 ± 0.14 | -3.13 ± 0.19 |
| CCCCAGCAAUAUUACGGCAU | -3.43 ± 0.14 | -2.42 ± 0.14 |
| CCCCAGCAAUAUUACGGGCA | -2.57 ± 0.13 | -1.45 ± 0.11 |
| CCCCAGCAAUAUUACGUCUA | -3.09 ± 0.14 | -2.84 ± 0.2 |
| CCCCAGCAAUAUUACGUGGC | -4.37 ± 0.14 | -2.74 ± 0.12 |
| CCCCAGCAAUAUUACGUUCC | -3.87 ± 0.24 | -3.3 ± 0.3 |
| CCCGAGCAAUAUUACGAAGG |  | -2.18 ± 0.23 |
| CCCGAGCAAUAUUACGAAGU | -3.58 ± 0.18 | -2.75 ± 0.24 |
| CCCGAGCAAUAUUACGAGCA | -2.24 ± 0.27 | -2.04 ± 0.25 |
| CCCGAGCAAUAUUACGAGGA | -2.48 ± 0.17 | -0.976 ± 0.11 |
| CCCGAGCAAUAUUACGAGUC | -2.67 ± 0.31 | -1.69 ± 0.35 |
| CCCGAGCAAUAUUACGAUAA | -1.81 ± 0.23 | -2.73 ± 0.25 |
| CCCGAGCAAUAUUACGAUCA | -2.79 ± 0.28 | -2.98 ± 0.33 |
| CCCGAGCAAUAUUACGAUCG | -3.58 ± 0.32 | -2.71 ± 0.41 |
| CCCGAGCAAUAUUACGAUGA | -3.45 ± 0.43 | -2.4 ± 0.28 |
| CCCGAGCAAUAUUACGAUUC | -4.01 ± 0.3 | -2.13 ± 0.18 |
| CCCGAGCAAUAUUACGCACU | -2.78 ± 0.25 | -3 ± 0.27 |
| CCCGAGCAAUAUUACGCCCU |  | -2.24 ± 0.33 |

| Sequence | self-splicing fitness (ln) (30 °C) | self-splicing fitness (ln) (37 °C) |
| --- | --- | --- |
| CCCGAGCAAUAUUACGCCGA | -3.02 ± 0.39 | -2.14 ± 0.36 |
| CCCGAGCAAUAUUACGCGGU | -3.37 ± 0.16 | -2.7 ± 0.17 |
| CCCGAGCAAUAUUACGGACG | -3.62 ± 0.29 | -0.706 ± 0.18 |
| CCCGAGCAAUAUUACGGCCA | -2.88 ± 0.23 | -3.57 ± 0.28 |
| CCCGAGCAAUAUUACGGGAU | -3.31 ± 0.23 | -2.08 ± 0.21 |
| CCCGAGCAAUAUUACGGGCC | -3.99 ± 0.27 | -2.26 ± 0.26 |
| CCCGAGCAAUAUUACGGGGC | -3.75 ± 0.19 | -2.74 ± 0.17 |
| CCCGAGCAAUAUUACGGUAU | -3.43 ± 0.22 | -3.01 ± 0.4 |
| CCCGAGCAAUAUUACGUAAC | -3.43 ± 0.23 | -3.05 ± 0.28 |
| CCCGAGCAAUAUUACGUACC | -2 ± 0.21 |  |
| CCCGAGCAAUAUUACGUACU | -3.49 ± 0.24 | -1.24 ± 0.14 |
| CCCGAGCAAUAUUACGUCAG | -3.49 ± 0.15 | -2.51 ± 0.17 |
| CCCGAGCAAUAUUACGUCGA | -4.11 ± 0.39 | -3.16 ± 0.25 |
| CCCGAGCAAUAUUACGUCUA | -3.33 ± 0.2 | -2.42 ± 0.22 |
| CCCGAGCAAUAUUACGUUAU | -3.87 ± 0.21 | -2.62 ± 0.19 |
| CCCUAGCAAUAUUACGAACG | -3 ± 0.21 | -2.59 ± 0.29 |
| CCCUAGCAAUAUUACGAAUG | -4.25 ± 0.46 |  |
| CCCUAGCAAUAUUACGAGAG | -3.79 ± 0.3 | -2.5 ± 0.23 |
| CCCUAGCAAUAUUACGAGCU | -4.02 ± 0.24 | -1.87 ± 0.2 |
| CCCUAGCAAUAUUACGAGGG | -4.35 ± 0.46 | -2.09 ± 0.23 |
| CCCUAGCAAUAUUACGAGUC | -3.63 ± 0.21 | -2.28 ± 0.27 |
| CCCUAGCAAUAUUACGAUAA | -4.04 ± 0.22 | -2.48 ± 0.22 |
| CCCUAGCAAUAUUACGCGAG | -3.61 ± 0.19 | -3.25 ± 0.21 |
| CCCUAGCAAUAUUACGCGCG | -3.46 ± 0.16 | -3.35 ± 0.27 |
| CCCUAGCAAUAUUACGCUAA | -4.17 ± 0.3 | -2.55 ± 0.22 |

| Sequence | self-splicing fitness (ln) (30 °C) | self-splicing fitness (ln) (37 °C) |
| --- | --- | --- |
| CCCUAGCAAUAUUACGGCAA | -3.66 ± 0.22 | -3.15 ± 0.18 |
| CCCUAGCAAUAUUACGGCAG | -3.47 ± 0.22 | -2.75 ± 0.22 |
| CCCUAGCAAUAUUACGGCGA | -2.43 ± 0.13 | -2.19 ± 0.17 |
| CCCUAGCAAUAUUACGGCGC | -3.55 ± 0.21 | -3.28 ± 0.24 |
| CCCUAGCAAUAUUACGGGAU | -3.82 ± 0.21 | -3.12 ± 0.26 |
| CCCUAGCAAUAUUACGGUAA | -2.69 ± 0.21 | -3.02 ± 0.32 |
| CCCUAGCAAUAUUACGGUCU | -3.61 ± 0.21 | -1.72 ± 0.17 |
| CCCUAGCAAUAUUACGUACA | -2.75 ± 0.19 | -2.87 ± 0.22 |
| CCCUAGCAAUAUUACGUGUC | -3.29 ± 0.13 | -2.97 ± 0.19 |
| CCCUAGCAAUAUUACGUUGU | -3.84 ± 0.16 | -3.27 ± 0.16 |
| CCGAAGCAAUAUUACGAACA |  | -2.58 ± 0.41 |
| CCGAAGCAAUAUUACGAACG | -0.139 ± 0.077 | 0.554 ± 0.1 |
| CCGAAGCAAUAUUACGAAUC | -4.12 ± 0.32 | -3.04 ± 0.48 |
| CCGAAGCAAUAUUACGAGAU | -3.31 ± 0.17 | -2.43 ± 0.21 |
| CCGAAGCAAUAUUACGCCUG | -1.04 ± 0.094 | -1.17 ± 0.11 |
| CCGAAGCAAUAUUACGCGAA |  | -2.24 ± 0.2 |
| CCGAAGCAAUAUUACGCUCG | -1.57 ± 0.18 | -1.53 ± 0.21 |
| CCGAAGCAAUAUUACGGCCC | -3.55 ± 0.3 | -1.71 ± 0.38 |
| CCGAAGCAAUAUUACGGCGC | -4.16 ± 0.36 | -2.63 ± 0.49 |
| CCGAAGCAAUAUUACGGCUU | -3.9 ± 0.29 | -3.29 ± 0.32 |
| CCGAAGCAAUAUUACGGGAC | -4.02 ± 0.26 | -3.3 ± 0.26 |
| CCGAAGCAAUAUUACGGGGA | -3.16 ± 0.19 | -2.96 ± 0.19 |
